Results from the supplement of paper PMC10567573.

B1: TMEM40 (parent)
chain: YGETDFHKQDGKAGLFSQEQYERN

Variants of: B1
Assay: protein stability index of a GFP-peptide fusion (GPS, HEK-293T) (PSI 1-6); higher = more stable
Settings: c terminus: a fixed tail appended
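Further: lentivirally expressed fusions sorted by FACS into six bins by GFP to DsRed ratio, PSI derived from sequencing read proportions per bin multiplied by bin number.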

Protein stability index, by site and new letter:
Q9: R 4.13 | Y 3.37 | N 4.53 | T 3.85 | F 3.38 | W 2.99 | D 5.05 | P 3.56 | S 4.33 | G 3.73 | L 3.49 | V 3.6 | I 3.71 | K 3.7 | M 3.17 | E 4.78 | A 3.96 | H 3.75
T4: K 3.59 | E 4.83 | C 4.34 | A 3.78 | H 4.13 | N 4.59 | Q 4.14 | S 4.06 | V 4.14 | R 3.33 | M 3.67 | W 3.28 | Y 4.04 | F 4.43 | L 3.69 | I 4 | G 4.61 | P 3.62 | D 4.66
D5: A 2.92 | M 2.58 | I 3.15 | L 3.07 | P 4.14 | C 2.36 | S 2.88 | G 2.37 | Q 3.81 | F 1.49 | N 3.24 | K 3.2 | E 4.37 | T 2.99 | V 3.2 | Y 2.04 | R 3.38 | H 2.83
D10: P 3.12 | M 1.47 | I 1.92 | R 3.37 | K 3.44 | C 2.46 | S 2.96 | E 3.72 | N 3.92 | T 3.04 | F 2.26 | G 3.24 | Q 2.9 | W 2.27 | V 2 | L 2.09 | H 2.77
K8: E 4.67 | T 4.46 | V 4.34 | Q 4.66 | N 4.01 | P 4.7 | F 3.77 | Y 3.96 | H 4.18 | M 3.71 | L 4.29 | I 3.89 | C 4.5 | S 4.66 | W 2.36 | D 5.12 | G 4.31 | A 4.53 | R 3.86
G2: K 4.68 | N 4.78 | I 2.65 | M 3.92 | H 3.47 | A 3.49 | V 1.6 | F 4.61 | Y 4.57 | P 4.95 | R 4.66 | C 3.42 | D 4.95 | L 4.46 | S 4.56 | T 4.11 | Q 3.67 | E 5.38 | W 3.62
F6: S 5.6 | W 2.35 | K 4.91 | D 5.26 | E 5.38 | A 5.22 | M 4.91 | G 5.25 | P 4.94 | T 4.6 | L 4.98 | C 4.54 | Q 4.36 | H 5.22 | R 4.54 | Y 4.41 | V 5.09 | N 5 | I 4.73
E3: N 2.46 | K 3.55 | H 3.23 | M 3.75 | T 3.61 | S 1.98 | Q 3.71 | G 2.36 | P 3.88 | C 3.12 | W 3.49 | D 3.09 | L 4.08 | Y 3.79 | V 4.38 | R 3.85 | F 3.57 | I 3.9 | A 3.92
H7: G 4.58 | V 4.24 | S 4.67 | E 4.93 | W 3.12 | I 4.37 | M 3.9 | Q 4.32 | K 4.18 | R 4.08 | C 4.35 | F 1.88 | A 4.48 | Y 2.17 | T 4.53 | N 4.91 | P 4.3 | D 5.38 | L 3.92
